Assays:
[1] = target: T1, recombinant CHO TEM-1 Fc fusion protein (UniProt Q9HCU0); assay: ECL sandwich, competition: biotin-9G5 capture, sulfo-TAG-15F8 detection; MORAb-004 spike 25 µg/mL, TEM-1-Fc QC 2 ng/mL; recovery at 0 µg/mL MORAb-004: 106
T1 sequence (looked up): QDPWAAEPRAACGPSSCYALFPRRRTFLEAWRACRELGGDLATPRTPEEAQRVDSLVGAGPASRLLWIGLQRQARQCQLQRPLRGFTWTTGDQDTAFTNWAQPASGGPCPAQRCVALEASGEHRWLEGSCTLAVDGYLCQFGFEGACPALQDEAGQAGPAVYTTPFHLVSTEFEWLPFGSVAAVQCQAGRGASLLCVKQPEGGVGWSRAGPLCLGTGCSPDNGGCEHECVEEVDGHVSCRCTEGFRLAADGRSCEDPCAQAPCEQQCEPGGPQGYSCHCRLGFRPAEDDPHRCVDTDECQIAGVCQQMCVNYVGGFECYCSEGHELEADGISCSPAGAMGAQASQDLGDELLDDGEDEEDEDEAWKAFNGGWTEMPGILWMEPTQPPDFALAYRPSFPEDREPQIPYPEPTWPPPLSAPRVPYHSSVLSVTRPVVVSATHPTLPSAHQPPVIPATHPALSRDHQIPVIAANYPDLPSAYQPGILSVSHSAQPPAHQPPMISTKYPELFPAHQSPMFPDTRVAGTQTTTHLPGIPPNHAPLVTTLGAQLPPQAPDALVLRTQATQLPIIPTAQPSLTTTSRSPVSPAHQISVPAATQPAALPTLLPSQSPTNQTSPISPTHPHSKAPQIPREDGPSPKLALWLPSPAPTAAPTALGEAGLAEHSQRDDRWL

[2] = target: T1, recombinant CHO TEM-1 Fc fusion protein; assay: ECL sandwich, competition: biotin-9G5 capture, sulfo-TAG-15F8 detection; MORAb-004 spike 50 µg/mL, TEM-1-Fc QC 2 ng/mL; recovery at 0 µg/mL MORAb-004: 106
[3] = target: T1, recombinant CHO TEM-1 Fc fusion protein; assay: ECL sandwich, competition: biotin-9G5 capture, sulfo-TAG-15F8 detection; MORAb-004 spike 25 µg/mL, TEM-1-Fc QC 10 ng/mL; recovery at 0 µg/mL MORAb-004: 105
[4] = target: T1, recombinant CHO TEM-1 Fc fusion protein; assay: ECL sandwich, competition: biotin-9G5 capture, sulfo-TAG-15F8 detection; MORAb-004 spike 50 µg/mL, TEM-1-Fc QC 10 ng/mL; recovery at 0 µg/mL MORAb-004: 105
[5] = target: T1, recombinant CHO TEM-1 Fc fusion protein; assay: ECL sandwich, competition: biotin-9G5 capture, sulfo-TAG-15F8 detection; MORAb-004 spike 12.5 µg/mL, TEM-1-Fc QC 2 ng/mL; recovery at 0 µg/mL MORAb-004: 106
[6] = target: T1, recombinant CHO TEM-1 Fc fusion protein; assay: ECL sandwich, competition: biotin-9G5 capture, sulfo-TAG-15F8 detection; MORAb-004 spike 25 µg/mL, TEM-1-Fc QC 0.08 ng/mL; recovery at 0 µg/mL MORAb-004: 114
[7] = target: T1, recombinant CHO TEM-1 Fc fusion protein; assay: ECL sandwich, competition: biotin-9G5 capture, sulfo-TAG-15F8 detection; MORAb-004 spike 3.125 µg/mL, TEM-1-Fc QC 2 ng/mL; recovery at 0 µg/mL MORAb-004: 106
[8] = target: T1, recombinant CHO TEM-1 Fc fusion protein; assay: ECL sandwich, competition: biotin-9G5 capture, sulfo-TAG-15F8 detection; MORAb-004 spike 50 µg/mL, TEM-1-Fc QC 0.08 ng/mL; recovery at 0 µg/mL MORAb-004: 114
[9] = target: T1, recombinant CHO TEM-1 Fc fusion protein; assay: ECL sandwich, competition: biotin-9G5 capture, sulfo-TAG-15F8 detection; MORAb-004 spike 12.5 µg/mL, TEM-1-Fc QC 0.4 ng/mL; recovery at 0 µg/mL MORAb-004: 109
[10] = target: T1, recombinant CHO TEM-1 Fc fusion protein; assay: ECL sandwich, competition: biotin-9G5 capture, sulfo-TAG-15F8 detection; MORAb-004 spike 3.125 µg/mL, TEM-1-Fc QC 10 ng/mL; recovery at 0 µg/mL MORAb-004: 105
[11] = target: T1, recombinant CHO TEM-1 Fc fusion protein; assay: ECL sandwich, competition: biotin-9G5 capture, sulfo-TAG-15F8 detection; MORAb-004 spike 6.25 µg/mL, TEM-1-Fc QC 0.4 ng/mL; recovery at 0 µg/mL MORAb-004: 109
[12] = target: T1, recombinant CHO TEM-1 Fc fusion protein; assay: ECL sandwich, competition: biotin-9G5 capture, sulfo-TAG-15F8 detection; MORAb-004 spike 0.78125 µg/mL, TEM-1-Fc QC 2 ng/mL; recovery at 0 µg/mL MORAb-004: 106
[13] = target: T1, recombinant CHO TEM-1 Fc fusion protein; assay: ECL sandwich, competition: biotin-9G5 capture, sulfo-TAG-15F8 detection; MORAb-004 spike 1.5625 µg/mL, TEM-1-Fc QC 10 ng/mL; recovery at 0 µg/mL MORAb-004: 105
[14] = target: T1, recombinant CHO TEM-1 Fc fusion protein; assay: ECL sandwich, competition: biotin-9G5 capture, sulfo-TAG-15F8 detection; MORAb-004 spike 3.125 µg/mL, TEM-1-Fc QC 0.4 ng/mL; recovery at 0 µg/mL MORAb-004: 109
[15] = target: T1, recombinant CHO TEM-1 Fc fusion protein; assay: ECL sandwich, competition: biotin-9G5 capture, sulfo-TAG-15F8 detection; MORAb-004 spike 6.25 µg/mL, TEM-1-Fc QC 0.08 ng/mL; recovery at 0 µg/mL MORAb-004: 114
[16] = target: T1, recombinant CHO TEM-1 Fc fusion protein; assay: ECL sandwich, competition: biotin-9G5 capture, sulfo-TAG-15F8 detection; MORAb-004 spike 1.5625 µg/mL, TEM-1-Fc QC 0.08 ng/mL; recovery at 0 µg/mL MORAb-004: 114

% Recovery of TEM-1 QCs spiked with MORAb-004 [1]: 89.1%
% Recovery of TEM-1 QCs spiked with MORAb-004 [2]: 89.9%
% Recovery of TEM-1 QCs spiked with MORAb-004 [3]: 91.3%
% Recovery of TEM-1 QCs spiked with MORAb-004 [4]: 87%
% Recovery of TEM-1 QCs spiked with MORAb-004 [5]: 92.8%
% Recovery of TEM-1 QCs spiked with MORAb-004 [6]: 96%
% Recovery of TEM-1 QCs spiked with MORAb-004 [7]: 96%
% Recovery of TEM-1 QCs spiked with MORAb-004 [8]: 94.1%
% Recovery of TEM-1 QCs spiked with MORAb-004 [9]: 96.5%
% Recovery of TEM-1 QCs spiked with MORAb-004 [10]: 95.8%
% Recovery of TEM-1 QCs spiked with MORAb-004 [11]: 98%
% Recovery of TEM-1 QCs spiked with MORAb-004 [12]: 99.9%
% Recovery of TEM-1 QCs spiked with MORAb-004 [13]: 97.7%
% Recovery of TEM-1 QCs spiked with MORAb-004 [14]: 101%
% Recovery of TEM-1 QCs spiked with MORAb-004 [15]: 101%
% Recovery of TEM-1 QCs spiked with MORAb-004 [16]: 103%
B1: MORAb-004 (antibody, INN chains, looked up, V domains shown)
VH: QVQLQESGPGLVRPSQTLSLTCTASGYTFTDYVIHWVKQPPGRGLEWIGYINPYDDDTTYNQKFKGRVTMLVDTSSNTAYLRLSSVTAEDTAVYYCARRGNSYDGYFDYSMDYWGSGTPVTVSS
VL: DIQMTQSPSSLSASVGDRVTITCRASQNVGTAVAWLQQTPGKAPKLLIYSASNRYTGVPSRFSGSGSGTDYTFTISSLQPEDIATYYCQQYTNYPMYTFGQGTKVQIK
